{
  "source": "patent CN112125972A",
  "about": "(SINOCELLTECH LTD, dated 2020)",
  "binders": {"B1": {"name": "HPV 16 R001 (antibody, V domains shown)", "VH": "QSVKESEGRLVTPGTPLTLTCTASGFTMSRYHMTWVRQAPGKGLEWIGIIYARNSDTYYANWAKGRFTISKTSTTVDLKITSPTIEDTATYFCARVDSDSSGAFDRLDLWGQGTLVTVSS", "VL": "DPMLTQTAASVEVAVGGTVTIKCQASQSIGGYLSWYQQKPGQRPKLLIYRASTLASGVPSRFKGSGSGTEYTLTFSGVECADAAAYYCQQGYTSSDINNAFGGGTEVVVK", "notes": "An HRP-labelled form served as detection antibody in the sandwich ELISA; also called HPV16.001; 单克隆抗体HPV 16 R001"}},
  "assay_in_all_cases": "double-antibody sandwich ELISA, R001 as capture and HRP-R001 as detection, mixture of HPV types",
  "key": {"[1]": {"biological_target": "T1, HPV45 VLP (Human papillomavirus type 45, UniProt P36741 27-539)", "T1 construct": "also called HPV45完整VLP蛋白", "T1 sequence": "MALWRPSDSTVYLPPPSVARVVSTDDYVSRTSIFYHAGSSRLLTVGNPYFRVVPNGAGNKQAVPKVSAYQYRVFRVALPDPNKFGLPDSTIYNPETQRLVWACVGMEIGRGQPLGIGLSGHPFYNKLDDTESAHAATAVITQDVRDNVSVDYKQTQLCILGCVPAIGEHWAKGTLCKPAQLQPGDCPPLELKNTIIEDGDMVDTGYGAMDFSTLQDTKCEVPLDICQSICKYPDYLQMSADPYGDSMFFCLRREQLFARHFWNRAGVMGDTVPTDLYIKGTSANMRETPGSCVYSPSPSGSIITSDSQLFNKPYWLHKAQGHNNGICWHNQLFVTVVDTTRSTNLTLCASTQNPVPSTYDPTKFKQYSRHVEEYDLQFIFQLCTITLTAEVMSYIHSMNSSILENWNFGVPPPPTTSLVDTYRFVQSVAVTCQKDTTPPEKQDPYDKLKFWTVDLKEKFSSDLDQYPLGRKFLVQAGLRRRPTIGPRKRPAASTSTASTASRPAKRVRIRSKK"}, "[2]": {"biological_target": "T2, HPV11 VLP (Human papillomavirus type 11, UniProt P04012 1-501)", "T2 construct": "also called HPV11完整VLP蛋白", "T2 sequence": "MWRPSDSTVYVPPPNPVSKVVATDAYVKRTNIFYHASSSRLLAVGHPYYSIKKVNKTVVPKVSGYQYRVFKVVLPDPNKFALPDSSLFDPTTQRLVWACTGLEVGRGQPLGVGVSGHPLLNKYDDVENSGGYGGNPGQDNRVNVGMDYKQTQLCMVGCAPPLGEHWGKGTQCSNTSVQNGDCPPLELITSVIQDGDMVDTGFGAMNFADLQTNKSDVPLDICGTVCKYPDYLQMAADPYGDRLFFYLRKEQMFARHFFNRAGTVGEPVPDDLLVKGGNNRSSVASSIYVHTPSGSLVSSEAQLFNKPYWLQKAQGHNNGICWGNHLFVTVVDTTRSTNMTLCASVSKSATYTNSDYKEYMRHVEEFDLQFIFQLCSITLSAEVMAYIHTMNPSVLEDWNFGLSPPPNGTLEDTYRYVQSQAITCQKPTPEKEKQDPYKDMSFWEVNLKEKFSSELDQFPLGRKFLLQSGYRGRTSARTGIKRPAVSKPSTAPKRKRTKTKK"}, "[3]": {"biological_target": "T3, HPV18 VLP (Human papillomavirus type 18, UniProt P06794 62-568)", "T3 construct": "also called HPV18完整VLP蛋白", "T3 sequence": "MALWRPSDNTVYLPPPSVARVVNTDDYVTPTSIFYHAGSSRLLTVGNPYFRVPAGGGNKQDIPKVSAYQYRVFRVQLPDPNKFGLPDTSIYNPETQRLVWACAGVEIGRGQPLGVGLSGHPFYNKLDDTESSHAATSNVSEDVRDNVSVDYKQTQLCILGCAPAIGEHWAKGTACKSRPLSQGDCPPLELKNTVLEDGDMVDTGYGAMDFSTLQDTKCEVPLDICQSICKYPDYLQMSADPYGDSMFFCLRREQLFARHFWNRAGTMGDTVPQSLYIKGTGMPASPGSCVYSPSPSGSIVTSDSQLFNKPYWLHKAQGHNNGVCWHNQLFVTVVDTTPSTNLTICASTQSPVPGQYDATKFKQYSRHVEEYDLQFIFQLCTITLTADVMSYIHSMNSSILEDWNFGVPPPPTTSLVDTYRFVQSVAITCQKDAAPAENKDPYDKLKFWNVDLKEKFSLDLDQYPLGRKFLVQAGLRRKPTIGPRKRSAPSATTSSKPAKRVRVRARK"}, "[4]": {"biological_target": "T4, HPV33 VLP (Human papillomavirus type 33, UniProt P06416 1-499)", "T4 construct": "also called HPV33完整VLP蛋白", "T4 sequence": "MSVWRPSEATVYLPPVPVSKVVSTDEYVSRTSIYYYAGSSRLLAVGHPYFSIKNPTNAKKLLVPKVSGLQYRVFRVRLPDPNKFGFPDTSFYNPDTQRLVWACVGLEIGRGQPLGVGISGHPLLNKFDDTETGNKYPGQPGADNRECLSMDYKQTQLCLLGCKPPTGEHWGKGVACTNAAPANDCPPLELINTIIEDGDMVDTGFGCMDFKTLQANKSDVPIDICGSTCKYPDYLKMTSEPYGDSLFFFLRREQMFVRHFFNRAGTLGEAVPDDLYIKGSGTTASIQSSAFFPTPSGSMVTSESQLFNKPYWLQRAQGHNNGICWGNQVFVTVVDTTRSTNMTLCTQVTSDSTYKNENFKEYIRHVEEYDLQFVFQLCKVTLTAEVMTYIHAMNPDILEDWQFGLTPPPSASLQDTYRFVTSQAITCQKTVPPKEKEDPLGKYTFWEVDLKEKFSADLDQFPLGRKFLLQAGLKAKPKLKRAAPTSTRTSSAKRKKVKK"}, "[5]": {"biological_target": "T5, HPV39 VLP (Human papillomavirus type 39, UniProt P24838 1-505)", "T5 construct": "also called HPV39完整VLP蛋白", "T5 sequence": "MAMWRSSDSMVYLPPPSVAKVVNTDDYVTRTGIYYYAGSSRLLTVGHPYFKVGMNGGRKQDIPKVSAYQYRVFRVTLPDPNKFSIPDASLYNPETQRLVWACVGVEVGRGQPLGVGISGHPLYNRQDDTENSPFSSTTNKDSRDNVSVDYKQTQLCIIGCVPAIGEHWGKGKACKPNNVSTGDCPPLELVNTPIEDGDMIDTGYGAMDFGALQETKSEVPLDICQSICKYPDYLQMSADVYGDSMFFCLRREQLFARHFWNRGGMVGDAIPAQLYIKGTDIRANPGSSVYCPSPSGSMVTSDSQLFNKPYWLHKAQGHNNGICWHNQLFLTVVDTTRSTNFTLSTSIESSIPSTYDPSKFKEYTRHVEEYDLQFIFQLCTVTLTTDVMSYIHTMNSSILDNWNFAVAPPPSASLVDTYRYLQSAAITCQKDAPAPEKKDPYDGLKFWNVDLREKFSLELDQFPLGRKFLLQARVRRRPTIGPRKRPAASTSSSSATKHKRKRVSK"}},
  "data": [
    {"binder": "B1", "values": [
      {"measurement": "binding result", "setting": "[1]", "result": "no binding (tested: 50ng/mL，25ng/mL，12.5ng/mL)"},
      {"measurement": "binding result", "setting": "[2]", "result": "no binding (tested: 50ng/mL，25ng/mL，12.5ng/mL)"},
      {"measurement": "binding result", "setting": "[3]", "result": "no binding (tested: 50ng/mL，25ng/mL，12.5ng/mL)"},
      {"measurement": "binding result", "setting": "[4]", "result": "no binding (tested: 50ng/mL，25ng/mL，12.5ng/mL)"},
      {"measurement": "binding result", "setting": "[5]", "result": "no binding (tested: 50ng/mL，25ng/mL，12.5ng/mL)"}
    ]}
  ]
}
